From US20030148958A1 (PROCTER AND GAMBLE, published 2003)
Ends that are not written are not given here.

Target: T1, corticotropin releasing factor 2 receptor
T1 sequence (Q13324 whole entry, species assumed, looked up): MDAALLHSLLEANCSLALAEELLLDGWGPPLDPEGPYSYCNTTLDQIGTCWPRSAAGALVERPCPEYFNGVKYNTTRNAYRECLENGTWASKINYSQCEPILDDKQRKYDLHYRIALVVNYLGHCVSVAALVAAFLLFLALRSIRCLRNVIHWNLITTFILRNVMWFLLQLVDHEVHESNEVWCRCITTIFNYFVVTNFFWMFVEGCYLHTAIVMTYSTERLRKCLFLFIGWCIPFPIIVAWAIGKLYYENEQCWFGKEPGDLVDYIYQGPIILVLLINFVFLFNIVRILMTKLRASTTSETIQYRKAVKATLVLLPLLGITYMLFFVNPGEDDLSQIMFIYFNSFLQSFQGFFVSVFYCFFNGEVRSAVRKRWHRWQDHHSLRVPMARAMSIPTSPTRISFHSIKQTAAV
Assay: cell-based or functional assay
For CRF1R Emax % in this document: reference of the scale not given here.
For CRF1R Emax in this document: reference of the scale not given here.
For CRF2R Emax % in this document: reference of the scale not given here.
For CRF2R Emax in this document: reference of the scale not given here.

Row | Binder | CRF2R EC50 | CRF2R Emax
1 | ZGPPISIDLPYHLLRKMIEIEKQEKEKQQAANNRLLLDTI (C-terminal amide) [SEQ ID NO 208] | 5.6 nM | 88%
2 | ZGPPISIDLPYILLRKMIEIEKQEKEKQQAANNRLLLDTI (C-terminal amide) [SEQ ID NO 204] | 3.6 nM | 93%
3 | ZGPPISIDLPWQLLRKMIEIEKQEKEKQQAANNRLLLDTI (C-terminal amide) [SEQ ID NO 210] | 10.2 nM | 97%
4 | ZGPPISIDLPYTLLRKMIEIEKQEKEKQQAANNRLLLDTI (C-terminal amide) [SEQ ID NO 200] | 8.8 nM | 100%
5 | ZGPPISIDLPITLLRKMIEIEKQEKEKQQAANNRLLLDTI (C-terminal amide) [SEQ ID NO 24] | 43.1 nM | 100%
6 | ZGPPISIDLPYQLLRKMIEIEKQEKEKQQAANNRLLLDTI (C-terminal amide) [SEQ ID NO 202] | 8.7 nM | 99%
7 | ZGPPISIDLPAHLLRKMIEIEKQEKEKQQAANNRLLLDTI (C-terminal amide) [SEQ ID NO 206] | 30.5 nM | 97%
8 | ZGPPISIDLPWHLLRKMIEIEKQEKEKQQAANNRLLLDTI (C-terminal amide) [SEQ ID NO 209] | 7.4 nM | 93%
9 | ZGPPISIDLPHHLLRKMIEIEKQEKEKQQAANNRLLLDTI (C-terminal amide) [SEQ ID NO 205] | 25 nM | 93%
10 | ZGPPISIDLPYLLLRKMIEIEKQEKEKQQAANNRLLLDTI (C-terminal amide) [SEQ ID NO 203] | 5.2 nM | 94%
11 | ZGPPISIDLPAQLLRKMIEIEKQEKEKQQAANNRLLLDTI (C-terminal amide) [SEQ ID NO 211] | 59.5 nM | 100%
12 | ZGPPISIDLPQLLLRKMIEIEKQEKEKQQAANNRLLLDTI (C-terminal amide) [SEQ ID NO 196] | 27.7 nM | 97%
13 | ZGPPISIDLPQHLLRKMIEIEKQEKEKQQAANNRLLLDTI (C-terminal amide) [SEQ ID NO 207] | 61.4 nM | 96%
14 | ZGPPISIDLPQILLRKMIEIEKQEKEKQQAANNRLLLDTI (C-terminal amide) [SEQ ID NO 199] | 8.5 nM | 92%
15 | ZGPPISIDLPLVLLRKMIEIEKQEKEKQQAANNRLLLDTI (C-terminal amide) [SEQ ID NO 193] | 10.1 nM | 97%
16 | ZGPPISIDLPYVLLRKMIEIEKQEKEKQQAANNRLLLDTI (C-terminal amide) [SEQ ID NO 201] | 5 nM | 100%
17 | ZGPPISIDLPLFLLRKMIEIEKQEKEKQQAANNRLLLDTI (C-terminal amide) [SEQ ID NO 195] | 18.8 nM | 
18 | ZGPPISIDLPLILLRKMIEIEKQEKEKQQAANNRLLLDTI (C-terminal amide) [SEQ ID NO 194] | 5 nM | 96%
19 | ZGPPISIDLPFQLLRKMIEIEKQEKEKQQATTNARLLDTV (C-terminal amide) [SEQ ID NO 20] | 7.81 nM | 99%
20 | ZGPPISIDLPFQLLRKMIEIEKQEKEKQQATTNARLLARV (C-terminal amide) [SEQ ID NO 23] | 10.2 nM | 100%
21 | ZGPPISIDLPFQLLRKMIEIEKQEKEKQQATTNARLLDRV (C-terminal amide) [SEQ ID NO 22] | 8.33 nM | 100%
22 | ZGPPISIDLPFQLLRKMIEIEKQEKEKQQATTNARLLATV (C-terminal amide) [SEQ ID NO 21] | 8.46 nM | 96%

Target: corticotropin releasing factor 1 receptor
Assay: cell-based or functional assay

Row | Binder | CRF1R EC50 | CRF1R Emax
23 | ZGPPISIDLPYHLLRKMIEIEKQEKEKQQAANNRLLLDTI (C-terminal amide) [SEQ ID NO 208] | 64.9 nM | 81%
24 | ZGPPISIDLPYILLRKMIEIEKQEKEKQQAANNRLLLDTI (C-terminal amide) [SEQ ID NO 204] | 32.1 nM | 74%
25 | ZGPPISIDLPWQLLRKMIEIEKQEKEKQQAANNRLLLDTI (C-terminal amide) [SEQ ID NO 210] | 43.5 nM | 90%
26 | ZGPPISIDLPYTLLRKMIEIEKQEKEKQQAANNRLLLDTI (C-terminal amide) [SEQ ID NO 200] | 188 nM | 99%
27 | ZGPPISIDLPITLLRKMIEIEKQEKEKQQAANNRLLLDTI (C-terminal amide) [SEQ ID NO 24] | > 1000 nM | 18%
28 | ZGPPISIDLPYQLLRKMIEIEKQEKEKQQAANNRLLLDTI (C-terminal amide) [SEQ ID NO 202] | 404 nM | 100%
29 | ZGPPISIDLPAHLLRKMIEIEKQEKEKQQAANNRLLLDTI (C-terminal amide) [SEQ ID NO 206] | 696 nM | 97%
30 | ZGPPISIDLPWHLLRKMIEIEKQEKEKQQAANNRLLLDTI (C-terminal amide) [SEQ ID NO 209] | 26.4 nM | 80%
31 | ZGPPISIDLPHHLLRKMIEIEKQEKEKQQAANNRLLLDTI (C-terminal amide) [SEQ ID NO 205] | 126 nM | 88%
32 | ZGPPISIDLPYLLLRKMIEIEKQEKEKQQAANNRLLLDTI (C-terminal amide) [SEQ ID NO 203] | 76.2 nM | 86%
33 | ZGPPISIDLPAQLLRKMIEIEKQEKEKQQAANNRLLLDTI (C-terminal amide) [SEQ ID NO 211] | 826 nM | 37%
34 | ZGPPISIDLPQLLLRKMIEIEKQEKEKQQAANNRLLLDTI (C-terminal amide) [SEQ ID NO 196] | 447 nM | 96%
35 | ZGPPISIDLPQHLLRKMIEIEKQEKEKQQAANNRLLLDTI (C-terminal amide) [SEQ ID NO 207] | 466 nM | 88%
36 | ZGPPISIDLPQILLRKMIEIEKQEKEKQQAANNRLLLDTI (C-terminal amide) [SEQ ID NO 199] | 706 nM | 93%
37 | ZGPPISIDLPLVLLRKMIEIEKQEKEKQQAANNRLLLDTI (C-terminal amide) [SEQ ID NO 193] | 266 nM | 95%
38 | ZGPPISIDLPYVLLRKMIEIEKQEKEKQQAANNRLLLDTI (C-terminal amide) [SEQ ID NO 201] | 99.6 nM | 80%
39 | ZGPPISIDLPLFLLRKMIEIEKQEKEKQQAANNRLLLDTI (C-terminal amide) [SEQ ID NO 195] | 103 nM | 93%
40 | ZGPPISIDLPLILLRKMIEIEKQEKEKQQAANNRLLLDTI (C-terminal amide) [SEQ ID NO 194] | 106 nM | 94%
41 | ZGPPISIDLPFQLLRKMIEIEKQEKEKQQATTNARLLDTV (C-terminal amide) [SEQ ID NO 20] | 906 nM | 60%
42 | ZGPPISIDLPFQLLRKMIEIEKQEKEKQQATTNARLLARV (C-terminal amide) [SEQ ID NO 23] | 1000 nM | 82%
43 | ZGPPISIDLPFQLLRKMIEIEKQEKEKQQATTNARLLDRV (C-terminal amide) [SEQ ID NO 22] | 1000 nM | 64%
44 | ZGPPISIDLPFQLLRKMIEIEKQEKEKQQATTNARLLATV (C-terminal amide) [SEQ ID NO 21] | 908 nM | 88%

Target: T2, CRF2R
T2 sequence (Q13324 whole entry, species assumed, looked up): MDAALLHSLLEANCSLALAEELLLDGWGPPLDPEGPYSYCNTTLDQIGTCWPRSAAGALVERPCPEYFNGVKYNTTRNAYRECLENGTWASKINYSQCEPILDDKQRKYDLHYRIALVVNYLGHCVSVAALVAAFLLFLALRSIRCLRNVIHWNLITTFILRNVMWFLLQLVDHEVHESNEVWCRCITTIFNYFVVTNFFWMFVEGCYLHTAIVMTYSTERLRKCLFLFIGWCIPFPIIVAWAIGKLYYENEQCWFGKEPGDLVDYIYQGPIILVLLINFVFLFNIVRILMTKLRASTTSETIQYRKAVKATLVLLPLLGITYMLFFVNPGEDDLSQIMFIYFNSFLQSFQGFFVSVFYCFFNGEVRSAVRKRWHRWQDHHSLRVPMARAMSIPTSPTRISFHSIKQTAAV
Assay: cell-based or functional assay

Row | Binder | CRF2R EC50 | CRF2R Emax %
45 | NDDPPISIDLPFFLLRNMIEMARIENEREQAGLNAKYLAEV-NH2 [SEQ ID NO 264] | 100 nM | 66.3%
46 | NDDPPISIDLPFYLLRNMIEMARIENEREQAGLNAKYLAEV-NH2 [SEQ ID NO 261] | 100 nM | 95.3%
47 | NDDPPISIDLPYYLLRNMIEMARIENEREQAGLNAKYLAEV-NH2 [SEQ ID NO 267] | 100 nM | 44.2%
48 | NDDPPISIDLPFHLLRNMIEMARIENEREQAGLNAKYLAEV-NH2 [SEQ ID NO 262] | 100 nM | 92.2%
49 | NDDPPISIDLPLILLRNMIEMARIENEREQAGLNAKYLAEV-NH2 [SEQ ID NO 269] | 100 nM | 77.3%
50 | DNPSLSIDLPYYLLRTLLELARTQSQRERAEQNAIIFASV-NH2 [SEQ ID NO 263] | 36.2 nM | 93%
51 | NDDPPISIDLPLFLLRNMIEMARIENEREQAGLNAKYLAEV-NH2 [SEQ ID NO 257] | 100 nM | 72.6%
52 | NDDPPISIDLPLLLLRNMIEMARIENEREQAGLNAKYLAEV-NH2 [SEQ ID NO 268] | 100 nM | 59%
53 | NDDPPISIDLPFLLLRNMIEMARIENEREQAGLNAKYLAEV-NH2 [SEQ ID NO 260] | 100 nM | 89.3%
54 | NDDPPISIDLPFQLLRNMIEMARIENEREQAGLNAKYLAEV-NH2 [SEQ ID NO 258] | 100 nM | 49.3%
55 | ZGPPISIDVPFQLLRKMIEIEKQEKEKQQAANNRLLLDTI (C-terminal amide) [SEQ ID NO 256] | 12.6 nM | 100%
56 | NDDPPISIDLPQYLLRNMIEMARIENEREQAGLNAKYLAEV-NH2 [SEQ ID NO 265] | 100 nM | 23.4%
57 | NDDPPISIDLPLHLLRNMIEMARIENEREQAGLNAKYLAEV-NH2 [SEQ ID NO 259] | 100 nM | 65%
58 | NDDPPISIDLPTYLLRNMIEMARIENEREQAGLNAKYLAEV-NH2 [SEQ ID NO 266] | 100 nM | 19.4%

Target: CRF1R
Assay: cell-based or functional assay

Row | Binder | CRF1R EC50 | CRF1R Emax %
59 | NDDPPISIDLPFFLLRNMIEMARIENEREQAGLNAKYLAEV-NH2 [SEQ ID NO 264] | 704 nM | 100%
60 | NDDPPISIDLPFYLLRNMIEMARIENEREQAGLNAKYLAEV-NH2 [SEQ ID NO 261] | 274 nM | 100%
61 | NDDPPISIDLPYYLLRNMIEMARIENEREQAGLNAKYLAEV-NH2 [SEQ ID NO 267] | 1000 nM | 22.8%
62 | NDDPPISIDLPFHLLRNMIEMARIENEREQAGLNAKYLAEV-NH2 [SEQ ID NO 262] | 408 nM | 100%
63 | NDDPPISIDLPLILLRNMIEMARIENEREQAGLNAKYLAEV-NH2 [SEQ ID NO 269] | 1000 nM | 44.3%
64 | DNPSLSIDLPYYLLRTLLELARTQSQRERAEQNAIIFASV-NH2 [SEQ ID NO 263] | 802 nM | 72%
65 | NDDPPISIDLPLFLLRNMIEMARIENEREQAGLNAKYLAEV-NH2 [SEQ ID NO 257] | 744 nM | 83.5%
66 | NDDPPISIDLPLLLLRNMIEMARIENEREQAGLNAKYLAEV-NH2 [SEQ ID NO 268] | 1000 nM | 14.2%
67 | NDDPPISIDLPFLLLRNMIEMARIENEREQAGLNAKYLAEV-NH2 [SEQ ID NO 260] | 834 nM | 89.7%
68 | NDDPPISIDLPFQLLRNMIEMARIENEREQAGLNAKYLAEV-NH2 [SEQ ID NO 258] | 1000 nM | 23.6%
69 | ZGPPISIDVPFQLLRKMIEIEKQEKEKQQAANNRLLLDTI (C-terminal amide) [SEQ ID NO 256] | 254 nM | 100%
70 | NDDPPISIDLPQYLLRNMIEMARIENEREQAGLNAKYLAEV-NH2 [SEQ ID NO 265] | 1000 nM | 9.3%
71 | NDDPPISIDLPLHLLRNMIEMARIENEREQAGLNAKYLAEV-NH2 [SEQ ID NO 259] | 820 nM | 83.6%
72 | NDDPPISIDLPTYLLRNMIEMARIENEREQAGLNAKYLAEV-NH2 [SEQ ID NO 266] | 1000 nM | 4.45%
